How the values were obtained:
Human c-Met-Flis-Fc ECD [1] = target: T1, Human c-Met-Flis-Fc ECD (human); experiment: ELISA, coated ECD-Fc, antibody 0.010 ng/mL
T1 construct: also called human c-Met extracellular domain (ECD)-Fc-Flis fusion; Human cMet-ECD-Fc-Flis
Procedure: (§1) Wells of 96-well EIA/RIA high binding plates (Costar, #2592) are coated with 100 μL of 1 μg/mL human c-Met extracellular domain (ECD)-Fc-Flis fusion (SEQ ID NO:72), RON-ECD-Fc (R&D Systems, #1947-MS), or PlexinA2-ECD-Fc (Abnova, Taipei, Taiwan #H00005362-P01) in coating buffer (BioFX Labs, # COAT-1000-01) overnight at 4° C. […] After the plates are washed, 100 μL/well of substrate solution (BioFx, #TMBW-1000-01) are added and the plates are incubated for 10 min. at room temperature. 100 μL/well of stop solution (BioFx, # LSTP-1000-01) are added to stop the reaction. The colorimetric signals are developed and read at 450 nm using a SpectraMax 190 plate reader (Molecular Devices, Sunnyvale, Calif.). c-Met antibody binding to c-Met, RON and PlexinA2 ECDs is proportional to color signal production.

mouse c-Met ECD = target: T2, mouse c-Met ECD (mouse, UniProt P16056 25-931); experiment: ELISA, coated ECD (data not shown)
T2 construct: extracellular domain
T2 sequence (P16056 25-931): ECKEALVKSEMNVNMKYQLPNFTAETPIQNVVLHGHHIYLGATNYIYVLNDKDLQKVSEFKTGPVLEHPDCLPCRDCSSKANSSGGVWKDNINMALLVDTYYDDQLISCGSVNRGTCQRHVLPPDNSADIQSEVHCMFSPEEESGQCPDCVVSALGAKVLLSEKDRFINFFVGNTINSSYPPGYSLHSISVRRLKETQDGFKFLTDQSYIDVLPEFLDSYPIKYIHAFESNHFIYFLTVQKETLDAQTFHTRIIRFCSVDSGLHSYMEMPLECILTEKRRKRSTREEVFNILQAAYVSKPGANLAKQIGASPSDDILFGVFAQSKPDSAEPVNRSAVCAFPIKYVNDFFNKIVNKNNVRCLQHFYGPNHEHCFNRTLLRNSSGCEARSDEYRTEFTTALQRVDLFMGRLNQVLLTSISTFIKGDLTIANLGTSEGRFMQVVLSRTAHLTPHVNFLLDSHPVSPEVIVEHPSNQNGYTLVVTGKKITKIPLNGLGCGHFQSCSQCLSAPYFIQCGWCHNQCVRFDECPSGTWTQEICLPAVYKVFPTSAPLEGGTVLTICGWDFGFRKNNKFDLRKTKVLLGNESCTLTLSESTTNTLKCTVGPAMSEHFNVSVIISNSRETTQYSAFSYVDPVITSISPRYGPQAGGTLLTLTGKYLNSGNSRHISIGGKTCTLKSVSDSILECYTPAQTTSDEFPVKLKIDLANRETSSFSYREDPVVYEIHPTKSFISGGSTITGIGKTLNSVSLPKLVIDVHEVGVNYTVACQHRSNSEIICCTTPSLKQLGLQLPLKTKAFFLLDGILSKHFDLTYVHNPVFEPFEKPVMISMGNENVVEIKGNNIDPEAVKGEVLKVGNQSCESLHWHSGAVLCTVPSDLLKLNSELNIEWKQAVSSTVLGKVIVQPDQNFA

Human c-Met-Flis-Fc ECD [2] = target: T1, Human c-Met-Flis-Fc ECD; experiment: ELISA, coated ECD-Fc, antibody 16666.667 ng/mL
Procedure: as §1

Human c-Met-Flis-Fc ECD [3] = target: T1, Human c-Met-Flis-Fc ECD; experiment: ELISA, coated ECD-Fc, antibody 0.000 ng/mL
Procedure: as §1

Human c-Met-Flis-Fc ECD [4] = target: T1, Human c-Met-Flis-Fc ECD; experiment: ELISA, coated ECD-Fc, antibody 2.143 ng/mL
Procedure: as §1

Human c-Met-Flis-Fc ECD [5] = target: T1, Human c-Met-Flis-Fc ECD; experiment: ELISA, coated ECD-Fc, antibody 0.357 ng/mL
Procedure: as §1

Rat c-Met-Flis-Fc ECD = target: T3, Rat c-Met-Flis-Fc ECD (rat); experiment: SPR (Biacore), antibody captured
T3 construct: also called Rat cMet-ECD-Fc-Flis; rat c-Met ECD
T3 sequence (chain, as listed by the source limits assumed): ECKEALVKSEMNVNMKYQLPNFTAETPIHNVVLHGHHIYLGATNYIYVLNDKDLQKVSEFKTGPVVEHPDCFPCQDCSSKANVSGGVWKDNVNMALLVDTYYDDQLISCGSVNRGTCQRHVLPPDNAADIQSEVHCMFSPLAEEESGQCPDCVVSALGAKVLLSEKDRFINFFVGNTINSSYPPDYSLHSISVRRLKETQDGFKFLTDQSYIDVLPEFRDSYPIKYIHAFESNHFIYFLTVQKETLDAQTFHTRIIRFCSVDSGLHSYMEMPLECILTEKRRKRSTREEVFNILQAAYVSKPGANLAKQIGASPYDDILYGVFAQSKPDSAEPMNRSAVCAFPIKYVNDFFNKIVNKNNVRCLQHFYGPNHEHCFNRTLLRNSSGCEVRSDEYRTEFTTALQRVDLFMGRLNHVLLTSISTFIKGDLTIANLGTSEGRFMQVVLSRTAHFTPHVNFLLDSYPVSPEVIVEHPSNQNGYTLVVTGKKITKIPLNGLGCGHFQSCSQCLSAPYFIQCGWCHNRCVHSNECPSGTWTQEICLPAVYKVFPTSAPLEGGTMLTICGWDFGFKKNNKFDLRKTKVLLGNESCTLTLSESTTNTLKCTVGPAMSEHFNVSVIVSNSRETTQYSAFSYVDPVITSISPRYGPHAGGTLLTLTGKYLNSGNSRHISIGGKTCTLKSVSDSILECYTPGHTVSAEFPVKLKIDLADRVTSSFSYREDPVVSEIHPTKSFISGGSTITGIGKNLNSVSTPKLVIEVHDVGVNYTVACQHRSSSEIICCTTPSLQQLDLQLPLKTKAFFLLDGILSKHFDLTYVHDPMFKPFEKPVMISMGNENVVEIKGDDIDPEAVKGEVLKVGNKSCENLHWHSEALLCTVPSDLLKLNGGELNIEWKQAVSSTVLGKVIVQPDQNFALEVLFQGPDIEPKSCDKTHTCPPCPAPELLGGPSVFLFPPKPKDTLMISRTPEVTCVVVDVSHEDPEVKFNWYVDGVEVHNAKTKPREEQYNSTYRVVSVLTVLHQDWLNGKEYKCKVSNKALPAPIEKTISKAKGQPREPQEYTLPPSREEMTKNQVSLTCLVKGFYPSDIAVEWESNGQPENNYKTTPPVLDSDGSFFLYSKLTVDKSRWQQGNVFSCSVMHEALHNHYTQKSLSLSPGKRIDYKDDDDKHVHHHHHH
Procedure: (§2) A Biacore® 2000 instrument is used to measure the binding kinetics of c-Met antibodies to human, cynomolgus monkey, and rat c-Met ECDs. Measurements are performed at 25° C. Samples are dissolved in HBS-EP buffer (150 mM sodium chloride, 3 mM EDTA, 0.005% (w/v) surfactant P-20, and 10 mM N-2-hydroxyethylpiperazine-N′-2-ethanesulfonic acid (HEPES) at pH 7.4; #BR-1001-88).
(§3) Binding is evaluated using multiple cycles. Each cycle is performed at a flow rate of 50 μL/min., and consists of the following steps: injection of about 10 μL of a c-Met antibody at 10 μg/mL aiming at a capture of 40-100 RUs, injection of 250 μL of human, cynomolgus, or rat c-Met-Flis-Fc ECD (starting at 100 nM and using two-fold serial dilutions for each cycle) followed by 20 min. for dissociation, and regeneration using about 30 μL of 10 mM glycine hydrochloride, pH 1.5. Association and dissociation rates for each cycle are evaluated using a “1:1 (Langmuir) binding” model in the BIAevaluation software, version 4.1.

Human c-Met-Flis-Fc ECD [6] = target: T1, Human c-Met-Flis-Fc ECD; experiment: ELISA, coated ECD-Fc, antibody 12.860 ng/mL
Procedure: as §1

Human c-Met-Flis-Fc ECD [7] = target: T1, Human c-Met-Flis-Fc ECD; experiment: ELISA, coated ECD-Fc, antibody 0.002 ng/mL
Procedure: as §1

Human c-Met-Flis-Fc ECD [8] = target: T1, Human c-Met-Flis-Fc ECD; experiment: ELISA, coated ECD-Fc, antibody 100000.000 ng/mL
Procedure: as §1

[9] = target: T4, Cynomolgus Monkey c-Met-Flis-Fc ECD (cynomolgus monkey); experiment: SPR Biacore, antibody captured, ECD-Fc analyte, 1:1 model
T4 construct: also called Cynomolgus Monkey cMet-ECD-Fc-Flis; cynomolgus monkey c-Met ECD
T4 sequence (chain, as listed by the source limits assumed): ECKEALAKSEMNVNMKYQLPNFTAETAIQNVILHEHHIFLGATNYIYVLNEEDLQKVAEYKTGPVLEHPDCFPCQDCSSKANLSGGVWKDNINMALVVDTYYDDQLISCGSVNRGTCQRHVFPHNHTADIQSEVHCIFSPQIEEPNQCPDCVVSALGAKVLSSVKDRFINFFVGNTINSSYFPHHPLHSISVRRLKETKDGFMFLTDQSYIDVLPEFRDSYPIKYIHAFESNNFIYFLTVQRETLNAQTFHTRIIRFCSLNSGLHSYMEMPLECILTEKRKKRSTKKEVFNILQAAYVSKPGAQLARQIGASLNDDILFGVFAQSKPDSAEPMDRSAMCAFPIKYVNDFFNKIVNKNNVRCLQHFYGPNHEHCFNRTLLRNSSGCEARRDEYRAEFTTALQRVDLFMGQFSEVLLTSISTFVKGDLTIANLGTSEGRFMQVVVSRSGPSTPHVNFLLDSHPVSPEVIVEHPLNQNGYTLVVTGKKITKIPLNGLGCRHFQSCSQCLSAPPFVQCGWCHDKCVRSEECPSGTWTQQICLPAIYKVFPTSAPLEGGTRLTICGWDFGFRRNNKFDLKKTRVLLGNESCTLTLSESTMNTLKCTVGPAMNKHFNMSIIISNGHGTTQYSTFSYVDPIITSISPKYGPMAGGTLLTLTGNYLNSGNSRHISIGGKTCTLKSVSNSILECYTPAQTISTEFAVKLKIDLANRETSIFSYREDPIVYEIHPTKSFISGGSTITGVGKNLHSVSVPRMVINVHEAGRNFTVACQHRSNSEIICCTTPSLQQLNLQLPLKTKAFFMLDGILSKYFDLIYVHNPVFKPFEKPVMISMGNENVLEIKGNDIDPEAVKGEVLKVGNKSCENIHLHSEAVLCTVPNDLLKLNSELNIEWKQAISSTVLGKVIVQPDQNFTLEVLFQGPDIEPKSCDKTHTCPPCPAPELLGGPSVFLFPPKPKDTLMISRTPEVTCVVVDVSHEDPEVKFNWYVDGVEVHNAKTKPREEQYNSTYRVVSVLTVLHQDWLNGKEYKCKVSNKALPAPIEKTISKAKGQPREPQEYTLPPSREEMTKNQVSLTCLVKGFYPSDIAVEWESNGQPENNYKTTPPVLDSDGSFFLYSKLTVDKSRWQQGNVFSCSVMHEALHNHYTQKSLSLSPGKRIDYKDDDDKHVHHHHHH
Procedure: as §2, §3

Human c-Met-Flis-Fc ECD [10] = target: T1, Human c-Met-Flis-Fc ECD; experiment: as above
Procedure: as §2, §3

Human c-Met-Flis-Fc ECD [11] = target: T1, Human c-Met-Flis-Fc ECD; experiment: ELISA, coated ECD-Fc, antibody 2777.778 ng/mL
Procedure: as §1

Human c-Met-Flis-Fc ECD [12] = target: T1, Human c-Met-Flis-Fc ECD; experiment: ELISA, coated ECD-Fc, antibody 77.160 ng/mL
Procedure: as §1

Human c-Met-Flis-Fc ECD [13] = target: T1, Human c-Met-Flis-Fc ECD; experiment: ELISA, coated ECD-Fc, antibody 462.963 ng/mL
Procedure: as §1

Human c-Met-Flis-Fc ECD [14] = target: T1, Human c-Met-Flis-Fc ECD; experiment: ELISA, coated ECD-Fc, antibody 0.060 ng/mL
Procedure: as §1

T1 sequence (chain, as listed by the source limits assumed): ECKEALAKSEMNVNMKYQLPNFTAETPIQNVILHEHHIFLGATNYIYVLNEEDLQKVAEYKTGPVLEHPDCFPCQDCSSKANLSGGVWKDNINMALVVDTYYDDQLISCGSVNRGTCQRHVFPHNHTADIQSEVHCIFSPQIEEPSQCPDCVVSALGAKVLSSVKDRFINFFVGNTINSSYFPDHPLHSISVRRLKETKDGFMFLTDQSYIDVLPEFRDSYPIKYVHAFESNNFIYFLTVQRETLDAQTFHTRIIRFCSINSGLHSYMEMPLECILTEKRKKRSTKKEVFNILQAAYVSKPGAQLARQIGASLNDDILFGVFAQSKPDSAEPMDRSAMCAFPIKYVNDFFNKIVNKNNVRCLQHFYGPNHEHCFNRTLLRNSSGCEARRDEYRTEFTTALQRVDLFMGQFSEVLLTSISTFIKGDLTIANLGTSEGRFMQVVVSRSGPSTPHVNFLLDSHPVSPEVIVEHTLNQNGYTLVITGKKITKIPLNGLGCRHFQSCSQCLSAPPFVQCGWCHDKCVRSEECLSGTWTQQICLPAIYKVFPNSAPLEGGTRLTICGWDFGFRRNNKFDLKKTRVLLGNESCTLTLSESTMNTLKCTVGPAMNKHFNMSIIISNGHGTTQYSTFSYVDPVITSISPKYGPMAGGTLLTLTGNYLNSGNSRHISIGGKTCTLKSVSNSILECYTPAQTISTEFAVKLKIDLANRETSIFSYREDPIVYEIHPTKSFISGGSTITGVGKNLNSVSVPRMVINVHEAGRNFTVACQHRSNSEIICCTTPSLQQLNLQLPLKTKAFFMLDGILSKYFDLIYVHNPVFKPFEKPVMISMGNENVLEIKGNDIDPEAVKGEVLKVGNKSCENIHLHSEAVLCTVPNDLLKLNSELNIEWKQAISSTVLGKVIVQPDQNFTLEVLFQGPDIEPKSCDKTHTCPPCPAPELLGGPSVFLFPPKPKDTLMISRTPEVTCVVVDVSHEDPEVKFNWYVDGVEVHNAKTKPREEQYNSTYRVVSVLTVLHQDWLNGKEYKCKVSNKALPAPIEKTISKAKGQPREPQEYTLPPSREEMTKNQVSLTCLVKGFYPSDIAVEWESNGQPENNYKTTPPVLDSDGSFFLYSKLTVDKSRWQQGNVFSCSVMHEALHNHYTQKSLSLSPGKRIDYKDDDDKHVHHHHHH

Row | Binder | Average A450 nm (Human c-Met-Flis-Fc ECD [1]) | binding result (mouse c-Met ECD) | Average A450 nm (Human c-Met-Flis-Fc ECD [2]) | Average A450 nm (Human c-Met-Flis-Fc ECD [3]) | Average A450 nm (Human c-Met-Flis-Fc ECD [4]) | Average A450 nm (Human c-Met-Flis-Fc ECD [5]) | binding result (Rat c-Met-Flis-Fc ECD) | Average A450 nm (Human c-Met-Flis-Fc ECD [6]) | Average A450 nm (Human c-Met-Flis-Fc ECD [7]) | Average A450 nm (Human c-Met-Flis-Fc ECD [8]) | Kd [9] | Kd (Human c-Met-Flis-Fc ECD [10]) | Average A450 nm (Human c-Met-Flis-Fc ECD [11]) | Average A450 nm (Human c-Met-Flis-Fc ECD [12]) | Average A450 nm (Human c-Met-Flis-Fc ECD [13]) | Average A450 nm (Human c-Met-Flis-Fc ECD [14]) | koff [9] | kon [9] | koff (Human c-Met-Flis-Fc ECD [10]) | kon (Human c-Met-Flis-Fc ECD [10])
1 | C8-H241 (antibody, human IgG2, kappa, V domains shown, Called IgG4, kappa; also called Mab C8-H241) VH: QVQLVQSGAEVKKPGASVKVSCKASGYTFTDYYMHWVRQAPGQGLEWMGRVNPNRRGTTYNQKFEGRVTMTTDTSTSTAYMELRSLRSDDTAVYYCARANWLDYWGQGTTVTVSS VL: DIQMTQSPSSLSASVGDRVTITCSVSSSVSSIYLHWYQQKPGKAPKLLIYSTSNLASGVPSRFSGSGSGTDFTLTISSLQPEDFATYYCQVYSGYPLTFGGGTKVEIKR | 0.317 A450 nm | no binding (tested: 100 nM) | 4 A450 nm | 0.3 A450 nm | 2.86 A450 nm | 0.902 A450 nm | no binding | 4 A450 nm | 0.317 A450 nm | 4 A450 nm | < 0.2 nM | < 0.1 nM | 4 A450 nm | 4 A450 nm | 4 A450 nm | 0.484 A450 nm |  |  |  | 
2 | C8-co-16 (antibody, human IgG2, kappa, V domains shown, Called IgG4, kappa) VH: QVQLVQSGAEVKKPGASVKVSCKASGYTFTDYYMHWVRQAPGQGLEWMGRVNPYRGSTTYNQKFEGRVTMTTDTSTSTAYMELRSLRSDDTAVYYCARANILDYWGQGTTVTVSS VL: DIQMTQSPSSLSASVGDRVTITCSVSSSVRSIYLHWYQQKPGKAPKLLIYSTSNLASGVPSRFSGSGSGTDFTLTISSLQPEDFATYYCQVYRGYPLTFGGGTKVEIKR | 0.374 A450 nm | no binding (tested: 100 nM) | 4 A450 nm | 0.335 A450 nm | 2.89 A450 nm | 0.907 A450 nm | no binding | 4 A450 nm | 0.369 A450 nm | 4 A450 nm | < 0.1 nM | 0.3 nM | 4 A450 nm | 4 A450 nm | 4 A450 nm | 0.446 A450 nm | < 1e-05 s⁻¹ | 103000 M⁻¹ s⁻¹ | 3e-05 s⁻¹ | 110000 M⁻¹ s⁻¹
